The labels stand for the following.
B1: "Na(+)/H(+) exchange regulatory cofactor NHE-RF1" (Homo sapiens), O14745 (parent)
chain: MSADAAAGAPLPRLCCLEKGPNGYGFHLHGEKGKLGQYIRLVEPGSPAEKAGLLAGDRLVEVNGENVEKETHQQVVSRIRAALNAVRLLVVDPETDEQLQKLGVQVREELLRAQEAPGQAEPPAAAEVQGAGNENEPREADKSHPEQRELRPRLCTMKKGPSGYGFNLHSDKSKPGQFIRSVDPDSPAEASGLRAQDRIVEVNGVCMEGKQHGDVVSAIRAGGDETKLLVVDRETDEFFKKCRVIPSQEHLNGPLPVPFTNGEIQKENSREALAEAALESPRPALVRSASSDTSEELNSQDSPPKQDSTAPSSTSSSDPILDFNISLAMAKERAHQKRSSKRAPQMDWSKKNELFSNL

The variants in the experiment derive from B1. The settings on record: with moes_human MSN.
MSADAAAGAPLPRLCCLEKGPNGYGFHLHGEKGKLGQYIRLVEPGSPAEKAGLLAGDRLVEVNGENVEKETHQQVVSRIRAALNAVRLLVVDPETDEQLQKLGVQVREELLRAQEAPGQAEPPAAAEVQGAGNENEPREADKSHPEQRELRPRLCTMKKGPSGYGFNLHSDKSKPGQFIRSVDPDSPAEASGLRAQDRIVEVNGVCMEGKQHGDVVSAIRAGGDETKLLVVDRETDEFFKKCRVIPSQEHLNGPLPVPFTNGEIQKENSREALAEAALESPRPALVRSASSDTSEELNSQDSPPKQDSTAPSSTSSSDPILDFNISLAMAKERAHQKRSSKRAPQMDWSKKNELRSNL [F355R]: the “effect of a mutation on the interaction” value was “decreasing interaction”.

For the origin of these results see IntAct's records for PubMed 15020681.
